Test results reported in patent US20040067880A1 (priority 2002, published 2004).

Key:
[1] = biological target: CS receptor on human cells (HepG2 hepatoma cells; human liver metastases of colorectal cancer) (human); test: cell-based or functional assay
[2] = biological target: CS receptor on mouse colorectal carcinoma MCA26 cells (mouse); test: cell-based or functional assay
[3] = biological target: CS receptor on rat cells (rat liver sections; rat hepatoma H4IIE) (rat); test: cell-based or functional assay
[4] = biological target: CS receptor on human cells (HepG2 hepatoma cells; human liver metastases of colorectal cancer) (human); test: indirect immunofluorescence on frozen sections of human liver MCC from six patients
[5] = Cytosine deaminase enzymatic activity assay (conversion of [3H]cytosine to [3H]uracil); format: biochemical; details: purified recombinant protein
Method: Crude cell extracts were prepared by sonicating cells in a buffer (50 mM Na phosphate, pH 7.8 and 0.3 M NaCl) followed by centrifugation. Cytosine deaminase activity was determined by measuring the production of uracil in a reaction mixture (50 μl) containing 5 mM, 6-[^3H]cytosine (0.45 Ci/mol), 50 mM Tris-HCl pH 7.8, 1 mM DTT, 1 mM EDTA and cellular crude extract (10-20 μg/ml) or eluted fractions. After 1-2 hour of incubation at 37° C., 10 μl aliquots were withdrawn and analyzed by thin layer chromatography (Silica Gel 60, Selecto Scientific, Norcross, Ga.). Chromatograms were developed in 1-butanol /water (86/14, v/v). Positions of cytosine and uracil were identified by […]. The corresponding spots for cytosine and uracil were cut out and radioactivities were determined in a scintillation counter. In some cases, 6-[3H] 5-FC (4.0 Ci/mmol) was used as a substrate in the assay.

HepG2 cells [6] = format: cell-based, human; details: HepG2, 0.64 μM protein 4 hrs, 1 mM 5-FC, viability after 4 days
HL60 cells = test: Cytotoxicity assay with 5-FC in HL60 cells; format: cell-based; details: HL-60, 0.64 μM protein 4 hrs, protein removed (washed), 1 mM 5-FC
HepG2 cells [7] = test: Persistent effect on 5-FC cell killing of HepG2 cells; format: cell-based, human; details: HepG2, 0.5 μM protein 4 hrs, then 5-FC at intervals
Method: FIG. 7. Persistent effect of CD-CS on cell killing of HepG2 cells. HepG2 cells were treated with 0.8 μM of CD-CS or with CD as a control for 4 hr. Cells was washed with fresh medium and cultured in the regular medium. Cultures were split once every 6 days. At different time intervals, cells were treated with 1 mM 5-FC. Cell viability was counted 4 days thereafter. Each point represents an average of three independent experiments.
HepG2 cells were treated with 0.5 μM of CD-CS or CD for 4 hrs and the recombinant proteins were removed from the medium and the cells were maintained in fresh medium thereafter. At different time intervals, cells were treated with 5-FC. Sustained cell killing was observed even 28 days after the removal of the recombinant protein (FIG. 7).

## CD-CS fusion protein (cytosine deaminase fused to repeat-deleted malarial circumsporozoite protein, encoded by pCD5-73.15.5) (from UniProt P19597 27-29; P25524 2-427; P19597 30-396)
[1]
  LD50 of CD-CS-mediated cell killing, HepG2: 0.22 µM
[2]
  LD50 of CD-CS-mediated cell killing, MCA26: 0.22 µM
[3]
  LD50 of CD-CS-mediated cell killing, rat hepatoma H-4-II-E: 0.22 µM

## full-length recombinant CS protein (malarial circumsporozoite protein) (from UniProt P19597 27-396) (ligand)
[4]
  positive staining cells: > 90%

B1: CD: recombinant Escherichia coli cytosine deaminase with 6 histidine residues at the C-terminus (protein, UniProt P25524 2-427, looked up)
Cytosine deaminase: SNNALQTIINARLPGEEGLWQIHLQDGKISAIDAQSGVMPITENSLDAEQGLVIPPFVEPHIHLDTTQTAGQPNWNQSGTLFEGIERWAERKALLTHDDVKQRAWQTLKWQIANGIQHVRTHVDVSDATLTALKAMLEVKQEVAPWIDLQIVAFPQEGILSYPNGEALLEEALRLGADVVGAIPHFEFTREYGVESLHKTFALAQKYDRLIDVHCDEIDDEQSRFVETVAALAHHEGMGARVTASHTTAMHSYNGAYTSRLFRLLKMSGINFVANPLVNIHLQGRFDTYPKRRGITRVKEMLESGINVCFGHDDVFDPWYPLGTANMLQVLHMGLHVCQLMGYGQINDGLNLITHHSARTLNLQDYGIAAGNSANLIILPAENGFDALRRQVPVRYSVRGGKVIASTQPAQTTVYLEQPEAIDYKR
modifications: C-terminal His6 tag
notes: recombinant Escherichia coli cytosine deaminase with 6 histidine residues at the C-terminus
[5]
  specific activity, conversion of [3H]cytosine to [3H]uracil: 3,308 nmol/min/mg protein
HepG2 cells [6]; unwashed
  sensitivity of protein-treated cells to 5-FC: sensitive
HepG2 cells [6]; washed
  sensitivity of protein-pretreated cells to 5-FC / cell killing: could not
HL60 cells
  cell death upon subsequent addition of 5-FC: failed to induce cell death
HepG2 cells [7]
  cell killing (basal level): < 10%
